{"source": "patent US20230312724A1", "about": "(KADMON, published 2023)", "key": {"[1]": {"biological_target": "T1, IgC domain of human B7-H4-Fc (human)", "T1 construct": "also called hB7-H4 IgC domain", "T1 sequence (chain, as listed by the source)": "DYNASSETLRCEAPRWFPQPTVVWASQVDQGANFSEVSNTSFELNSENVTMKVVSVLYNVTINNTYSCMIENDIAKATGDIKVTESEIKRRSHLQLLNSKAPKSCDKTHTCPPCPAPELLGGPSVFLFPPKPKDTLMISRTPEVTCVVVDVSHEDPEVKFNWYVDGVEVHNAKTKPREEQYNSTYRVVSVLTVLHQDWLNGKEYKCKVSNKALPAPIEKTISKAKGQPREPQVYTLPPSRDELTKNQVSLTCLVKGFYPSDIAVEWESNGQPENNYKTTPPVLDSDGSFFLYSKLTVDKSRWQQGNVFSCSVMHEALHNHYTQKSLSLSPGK", "experiment": "ELISA, coated hB7-H4 IgC domain (title on the sheet: IgC domain of hB7H4)", "procedure": "(§1) About 1-2 μg/ml of human or mouse B7-H4-Fc (or his-tagged) was immobilized on ELISA plates (Immuno 2HB, Thermo scientific, cat #3455) at 4° C. overnight. After blocking the plates with 3% PBS+milk, serial diluted antibodies were added to the blocked plates and incubated at RT for 1-1.5 h. After washing the plates with PBS-T (0.05%), horse radish peroxidase (HRP)-conjugated antibody targeting the hFab was added to the plate. Signals were developed by adding 3,3′,5,5′-Tetramethylbenzidine (TMB (followed 1N of H₂SO₄ to stop the reaction. The OD at 450 nm was read by ELISA plate reader (Infinite M1000 from TECAN). GraphPad from Prism was used to plot OD450 vs. antibody concentration curve and to calculate the EC50 values."}, "[2]": {"biological_target": "T2, human B7-H4 expressed on cells (human, UniProt Q7Z7D3 25-282)", "T2 construct": "Transfected CHO cells or tumor cell lines that carry hB7-H4; also called cellular hB7-H4", "T2 sequence": "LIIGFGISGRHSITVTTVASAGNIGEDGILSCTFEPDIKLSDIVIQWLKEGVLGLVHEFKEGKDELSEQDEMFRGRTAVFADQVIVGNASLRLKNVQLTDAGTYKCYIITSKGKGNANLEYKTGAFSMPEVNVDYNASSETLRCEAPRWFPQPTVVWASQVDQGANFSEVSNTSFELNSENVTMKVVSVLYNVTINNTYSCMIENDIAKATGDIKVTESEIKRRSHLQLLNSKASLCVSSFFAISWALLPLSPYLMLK", "experiment": "flow cytometry, SK-BR-3 cells", "summary_of_the_method": "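Binding read on a Guava flow cytometer after two-step staining at 4 °C: serial dilutions of antibody or fusion protein for 1 h, then 1:200 secondary antibody for 30 min in the dark. Cells suspended at 1×10⁶ cells/ml in cold FACS buffer, washed three times between steps.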"}, "[3]": {"biological_target": "T3, mouse B7-H4-Fc (mouse; human)", "T3 construct": "also called mB7-H4-Fc; mB7-H4-hFc", "T3 sequence (chain, as listed by the source)": "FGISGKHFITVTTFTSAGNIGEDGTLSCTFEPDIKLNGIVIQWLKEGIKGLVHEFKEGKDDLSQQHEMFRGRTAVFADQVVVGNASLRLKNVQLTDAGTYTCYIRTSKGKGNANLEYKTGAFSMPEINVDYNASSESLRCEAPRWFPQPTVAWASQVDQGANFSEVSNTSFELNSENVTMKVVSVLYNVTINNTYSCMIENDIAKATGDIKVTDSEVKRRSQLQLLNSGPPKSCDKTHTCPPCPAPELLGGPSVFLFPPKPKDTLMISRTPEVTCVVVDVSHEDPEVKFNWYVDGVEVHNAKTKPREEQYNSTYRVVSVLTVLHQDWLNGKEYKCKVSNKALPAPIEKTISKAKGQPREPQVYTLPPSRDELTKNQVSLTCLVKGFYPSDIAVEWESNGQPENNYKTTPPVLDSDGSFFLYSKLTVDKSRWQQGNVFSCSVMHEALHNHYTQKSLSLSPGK", "experiment": "ELISA, coated mB7-H4-Fc (title on the sheet: Binding to mB7-H7-Fc)", "procedure": "as §1"}, "[4]": {"biological_target": "T4, mouse B7-H4-his (mouse, UniProt Q7TSP5 25-257)", "T4 construct": "also called mB7-H4-his; mB7-H4-His; not shown: his tag", "T4 sequence": "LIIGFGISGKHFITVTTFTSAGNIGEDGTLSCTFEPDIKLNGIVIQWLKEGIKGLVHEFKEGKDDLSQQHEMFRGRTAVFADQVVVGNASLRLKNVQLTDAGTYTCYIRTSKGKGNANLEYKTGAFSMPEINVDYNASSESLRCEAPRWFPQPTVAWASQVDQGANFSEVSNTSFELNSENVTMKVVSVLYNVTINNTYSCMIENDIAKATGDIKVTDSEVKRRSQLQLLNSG", "experiment": "ELISA, coated mB7-H4-his", "procedure": "as §1"}, "[5]": {"biological_target": "T5, hB7-H4 (soluble human B7-H4, construct not named) (human, UniProt Q7Z7D3 25-259, limits assumed)", "T5 construct": "also called soluble hB7-H4", "T5 sequence": "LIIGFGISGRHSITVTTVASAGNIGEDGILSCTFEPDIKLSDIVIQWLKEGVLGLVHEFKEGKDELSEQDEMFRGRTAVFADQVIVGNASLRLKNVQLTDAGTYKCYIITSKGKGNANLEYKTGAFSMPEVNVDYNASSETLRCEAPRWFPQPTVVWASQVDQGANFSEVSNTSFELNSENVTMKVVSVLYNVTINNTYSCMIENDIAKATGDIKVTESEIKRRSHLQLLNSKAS", "experiment": "SPR (Biacore)", "summary_of_the_method": "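Kinetic constants came from a 1:1 Langmuir fit of binding at 25 °C in HBS-EP, pH 7.4. Analyte (100 nM to 0.1 nM) flowed for 180 s, then dissociated for 1000 or 1200 s, over amine-coupled human B7-H4-Fc, human B7-H4-his or mouse B7-H4-Fc surfaces at 50-100 RU.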"}, "[6]": {"biological_target": "T6, IgV domain of mouse B7-H4-Fc (mouse; human)", "T6 construct": "also called mB7-H4 IgV domain", "T6 sequence (chain, as listed by the source)": "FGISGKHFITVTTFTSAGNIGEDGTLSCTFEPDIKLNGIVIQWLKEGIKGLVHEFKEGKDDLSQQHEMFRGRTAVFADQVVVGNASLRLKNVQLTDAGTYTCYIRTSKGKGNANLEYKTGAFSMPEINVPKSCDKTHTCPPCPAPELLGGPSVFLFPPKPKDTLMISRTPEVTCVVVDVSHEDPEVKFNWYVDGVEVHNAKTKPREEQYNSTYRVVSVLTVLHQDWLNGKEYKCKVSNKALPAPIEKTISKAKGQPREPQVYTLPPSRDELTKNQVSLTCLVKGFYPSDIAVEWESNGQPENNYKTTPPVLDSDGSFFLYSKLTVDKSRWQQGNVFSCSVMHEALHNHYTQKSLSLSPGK", "experiment": "ELISA, coated mB7-H4 IgV domain", "procedure": "as §1"}, "[7]": {"biological_target": "T7, IgC domain of mouse B7-H4-Fc (mouse; human)", "T7 construct": "also called mB7-H4 IgC domain", "T7 sequence (chain, as listed by the source)": "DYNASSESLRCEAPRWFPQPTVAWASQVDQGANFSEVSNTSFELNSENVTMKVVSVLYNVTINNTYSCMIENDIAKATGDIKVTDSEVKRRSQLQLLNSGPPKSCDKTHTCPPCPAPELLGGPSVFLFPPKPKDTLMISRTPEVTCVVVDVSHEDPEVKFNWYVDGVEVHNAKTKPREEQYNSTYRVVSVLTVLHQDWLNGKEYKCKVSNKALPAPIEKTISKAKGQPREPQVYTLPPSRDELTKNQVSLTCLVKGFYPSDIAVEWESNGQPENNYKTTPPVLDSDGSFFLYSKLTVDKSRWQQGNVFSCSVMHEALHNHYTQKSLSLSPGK", "experiment": "ELISA, coated mB7-H4 IgC domain (title on the sheet: IgC domain of mB7H4)", "procedure": "as §1"}, "[8]": {"biological_target": "T5, hB7-H4 (soluble human B7-H4, construct …)", "experiment": "ELISA, hB7-H4", "summary_of_the_method": "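~1-2 μg/ml antigen coated o/n 4° C; 3% milk block; Ab serial dil., RT 1-1.5 h; PBS-T wash; HRP-anti-hFab; TMB/1N H₂SO₄; A450. EC50 from OD vs. conc.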"}, "[9]": {"biological_target": "T8, mB7-H4 (soluble mouse B7-H4, construct not named) (mouse, UniProt Q7TSP5 25-257, limits assumed)", "T8 sequence": "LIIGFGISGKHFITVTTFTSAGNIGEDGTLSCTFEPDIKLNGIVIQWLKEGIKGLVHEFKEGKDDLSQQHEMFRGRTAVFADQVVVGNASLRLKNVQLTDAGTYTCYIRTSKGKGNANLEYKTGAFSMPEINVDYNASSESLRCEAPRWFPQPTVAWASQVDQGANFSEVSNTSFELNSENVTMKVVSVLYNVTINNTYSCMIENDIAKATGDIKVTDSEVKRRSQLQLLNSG", "experiment": "ELISA and SPR (Biacore)", "procedure": "as §1\nSurface plasmon resonance experiments were performed using a Biacore T200 instrument equipped with CM5 sensor chips. The system was equilibrated in running buffer HBS-EP pH 7.4. The ligands were immobilized using amine-coupling chemistry. The surfaces of flow cells one through four were activated for 5 min using an amine coupling kit at a flow rate of […]. The ligands (human B7-H4-Fc, human B7-H4-hism and mouse B7-H4-Fc; at a concentration of 5 μg/ml in 10 mM sodium acetate, pH 5.0) were immobilized at a density of 50-100 RU on flow cell 2, 3, 4 respectively. Flow cell 1 was left blank to serve as a reference surface. All flow cell surfaces were blocked with a 5 min injection of 1 M ethanolamine, pH 8.0. To collect kinetic binding data, the respective analyte (diluted in 1×HBS-EP buffer, pH 7.4) was injected over the four flow cells at concentrations of 100 nM to 0.1 nM at a flow rate of […] and at a temperature of 25° C. The protein complex was allowed to associate and dissociate for 180 seconds and 1000 or 1200 seconds, respectively. The surfaces were regenerated with a 30 second injection of 1.5 M NaCl/0.05 M NaOH. The data were fit to a simple 1:1 interaction model using the Langmuir fit option available within the Biaevaluaton software"}, "[10]": {"biological_target": "T9, mouse B7-H4 expressed on cells (mouse, UniProt Q7TSP5 25-257)", "T9 construct": "also called cellular mB7-H4; mB7-H4/CT26", "T9 sequence": "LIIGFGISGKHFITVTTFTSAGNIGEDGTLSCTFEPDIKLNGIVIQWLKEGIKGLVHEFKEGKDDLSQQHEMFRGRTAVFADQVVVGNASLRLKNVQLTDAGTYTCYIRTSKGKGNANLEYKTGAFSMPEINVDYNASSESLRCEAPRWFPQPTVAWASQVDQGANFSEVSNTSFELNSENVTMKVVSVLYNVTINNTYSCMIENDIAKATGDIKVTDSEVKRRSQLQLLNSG", "experiment": "flow cytometry, CHO cells expressing mB7-H4"}}, "data": [{"binder": "1D3/45A2 (antibody, human IgG1, V domains shown, 1D3 VH with 45A2 VL) VH: EVQLLESGGGLVQPGGSLRLSCAASGFTFNTHAMHWVRQAPGKGLEWVSAISGSGGSTYYADSVKGRFTISRDISKNTLYLQMNSLRAEDTAVYYCARLLGRFGEYGMDVWGQGTTVTVSS VL: DIQMTQSPSSLSASVGDRVTITCRASQNIYTWLAWYQQKPGKAPKLLIYDATNLPTGVPSRFSGSGSGTDFTLTISSLQPEDFATYYCQQSYSTRWTFGGGTKVEIK", "values": [{"measurement": "binding result", "setting": "[1]", "result": "no binding (tested: axis value -8 (labelled log nM))"}, {"measurement": "EC50", "setting": "[2]", "result": 52.1, "unit": "nM"}, {"measurement": "binding result", "setting": "[3]", "result": "no binding (tested: axis value -8 (log scale labelled nM))"}, {"measurement": "binding result", "setting": "[4]", "result": "no binding (tested: axis value -8 (labelled log nM))"}, {"measurement": "Kd", "setting": "[5]", "result": 0.317, "unit": "nM"}, {"measurement": "binding result", "setting": "[6]", "result": "no binding (tested: axis value -8 (labelled log nM))"}, {"measurement": "binding result", "setting": "[7]", "result": "no binding (tested: axis value -8 (labelled log nM))"}, {"measurement": "EC50", "setting": "[8]", "result": 0.041, "unit": "nM"}, {"measurement": "binding result", "setting": "[9]", "result": "no binding"}, {"measurement": "binding result", "setting": "[10]", "result": "no binding (tested: log 2 nM (100 nM))"}]}]}
